Experimental data: the supplement of paper PMC7125110
± gives the standard error. Variants at the floor of the assay were thinned out.

B1: glmS ribozyme (parent)
chain: AUAAAAGCGCCAGAACUACAGAAAUGUAGUUGACGAGGAGGAGGUUUAUCGAAUUUUCGGCGGAUGCCUCCAAA

Experiments:
Conditions in all cases: with glucosamine-6-phosphate
[1] = variants of: B1; assay: self-cleavage kobs at 40 uM GlcN6P; higher = faster cleavage; RNA array
How it was run: (§1)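 Glucosamine-6-phosphate in HEPES/KCl/Mg(OAc)2 buffer, at 40 μM to 10 mM, was flowed over barcoded ribozyme variants transcribed in situ by E. coli RNA polymerase on sequenced MiSeq chips. Tracking was through a hybridised Cy3 probe at 37 °C. kobs, kcat and KM came from exponential decay fits and weighted Michaelis–Menten fits of normalised per-tile medians.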

[2] = variants of: B1; assay: self-cleavage kobs at 160 uM GlcN6P; higher = faster cleavage; RNA array
How it was run: as §1

[3] = variants of: B1; assay: self-cleavage kobs at 640 uM GlcN6P; higher = faster cleavage; RNA array
How it was run: as §1

[4] = variants of: B1; assay: self-cleavage kobs at 10000 uM GlcN6P; higher = faster cleavage; RNA array
How it was run: as §1

[5] = variants of: B1; assay: self-cleavage kobs at 2500 uM GlcN6P; higher = faster cleavage; RNA array
How it was run: as §1

Variant | self-cleavage kobs at 40 uM GlcN6P [1] [s⁻¹] | self-cleavage kobs at 160 uM GlcN6P [2] [s⁻¹] | self-cleavage kobs at 640 uM GlcN6P [3] [s⁻¹] | self-cleavage kobs at 10000 uM GlcN6P [4] [s⁻¹] | self-cleavage kobs at 2500 uM GlcN6P [5] [s⁻¹]
A33U C34U | < 1e-05 | < 1e-05 | < 1e-05 | < 1e-05 | –
C34A C61A G63U | < 1e-05 | – | – | < 1e-05 | –
C34G A42G | < 1e-05 | – | < 1e-05 | < 1e-05 | < 1e-05
A33G U55C G59A | < 1e-05 | – | < 1e-05 | < 1e-05 | < 1e-05
A33G G44C | < 1e-05 | < 1e-05 | < 1e-05 | < 1e-05 | < 1e-05
A33U C67G | < 1e-05 | < 1e-05 | < 1e-05 | – | –
C34A G51A | < 1e-05 | < 1e-05 | – | – | < 1e-05
A33U G62C | < 1e-05 | – | < 1e-05 | – | –
C34A U56C | < 1e-05 | – | < 1e-05 | < 1e-05 | < 1e-05
A33U C67U C70G | < 1e-05 | – | – | – | –
A33G C50G G66U | 0.000106 ± 2.6e-05 | – | 0.000115 ± 5.2e-05 | 5.3e-05 ± 2.2e-05 | 0.000301 ± 0.0001
C34A G60U C68A | < 1e-05 | – | < 1e-05 | – | < 1e-05
A33U G37U C50G U69A | 8.34e-05 ± 2.3e-05 | – | – | 0.000105 ± 2.5e-05 | –
A33C C50G C71U | 0.000772 ± 0.00027 | – | 0.000204 ± 5.8e-05 | 5.96e-05 ± 2.9e-05 | 0.000589 ± 0.00017
A33C A42C | < 1e-05 | < 1e-05 | < 1e-05 | < 1e-05 | –
A33C G51A G66A C70G | < 1e-05 | – | – | – | –
C34U A39G | < 1e-05 | < 1e-05 | < 1e-05 | < 1e-05 | < 1e-05
C34A C50U | < 1e-05 | < 1e-05 | < 1e-05 | < 1e-05 | < 1e-05
C34G G43C | < 1e-05 | < 1e-05 | < 1e-05 | – | < 1e-05
A33C A52U | < 1e-05 | – | < 1e-05 | < 1e-05 | –
C34G G37A G44C C50G A53G G66U | < 1e-05 | – | – | < 1e-05 | –
A33G G40U U49C | < 1e-05 | – | – | < 1e-05 | –
C34A A48C | < 1e-05 | – | – | < 1e-05 | < 1e-05

Variant | self-cleavage kobs at 40 uM GlcN6P [1] [s⁻¹] | self-cleavage kobs at 160 uM GlcN6P [2] [s⁻¹] | self-cleavage kobs at 640 uM GlcN6P [3] [s⁻¹] | self-cleavage kobs at 10000 uM GlcN6P [4] [s⁻¹] | self-cleavage kobs at 2500 uM GlcN6P [5] [s⁻¹]
A33U U46A | < 1e-05 | < 1e-05 | < 1e-05 | – | –
C34A C71A | < 1e-05 | – | < 1e-05 | < 1e-05 | –
A33U U56A U65A | < 1e-05 | – | – | – | –
A33U A52C | < 1e-05 | < 1e-05 | – | < 1e-05 | –
C34G A48G C68G | 8.52e-05 ± 3.4e-05 | – | – | – | –
C34A G62A | < 1e-05 | < 1e-05 | < 1e-05 | < 1e-05 | < 1e-05
C34A A36G | < 1e-05 | < 1e-05 | < 1e-05 | < 1e-05 | < 1e-05
A33G U56A | < 1e-05 | < 1e-05 | < 1e-05 | < 1e-05 | –
A33G A64C | < 1e-05 | < 1e-05 | < 1e-05 | < 1e-05 | < 1e-05
A33C G63C | < 1e-05 | < 1e-05 | – | < 1e-05 | < 1e-05
A33C G63U | < 1e-05 | – | < 1e-05 | < 1e-05 | < 1e-05
A33C G41C U57G | < 1e-05 | – | – | – | < 1e-05
C34G G51C | < 1e-05 | – | < 1e-05 | < 1e-05 | –
A33U A64C | < 1e-05 | < 1e-05 | < 1e-05 | < 1e-05 | –
A33C A42U C61A | < 1e-05 | – | – | – | –
C34G U45A | < 1e-05 | < 1e-05 | < 1e-05 | < 1e-05 | < 1e-05
A33U C70A | < 1e-05 | – | – | – | –
A33U G60A | < 1e-05 | < 1e-05 | < 1e-05 | – | –
C34A U56C G63A | < 1e-05 | – | – | < 1e-05 | –
C34G A53G U56G C67U | < 1e-05 | – | – | – | –
C34G G41A | < 1e-05 | < 1e-05 | < 1e-05 | < 1e-05 | –
C34G G41C | < 1e-05 | < 1e-05 | – | < 1e-05 | < 1e-05
A33G U65G | < 1e-05 | < 1e-05 | < 1e-05 | < 1e-05 | < 1e-05

Variant | self-cleavage kobs at 40 uM GlcN6P [1] [s⁻¹] | self-cleavage kobs at 160 uM GlcN6P [2] [s⁻¹] | self-cleavage kobs at 640 uM GlcN6P [3] [s⁻¹] | self-cleavage kobs at 10000 uM GlcN6P [4] [s⁻¹] | self-cleavage kobs at 2500 uM GlcN6P [5] [s⁻¹]
C34A C58U | < 1e-05 | < 1e-05 | < 1e-05 | < 1e-05 | < 1e-05
C34A G43C | < 1e-05 | < 1e-05 | < 1e-05 | < 1e-05 | –
C34A G37U | < 1e-05 | < 1e-05 | – | – | < 1e-05
A33U C34U G60C C68U | < 1e-05 | – | – | – | < 1e-05
A33U C50G C71G | 0.000128 ± 2.3e-05 | – | – | 0.0002 ± 4.2e-05 | –
A33G C50U C67A | < 1e-05 | – | – | – | –
C34A G37A A48U | < 1e-05 | – | < 1e-05 | < 1e-05 | < 1e-05
C34A G59U | < 1e-05 | < 1e-05 | < 1e-05 | < 1e-05 | < 1e-05
A33U C61U C70G | < 1e-05 | – | – | – | –
C34A G43C A48G | < 1e-05 | – | – | – | –
C34A A39G A48U C68A | < 1e-05 | < 1e-05 | – | < 1e-05 | < 1e-05
C34G C50A | < 1e-05 | – | < 1e-05 | – | –
C34A G40C U46C | < 1e-05 | – | – | – | –
A33G U45C | < 1e-05 | – | < 1e-05 | – | < 1e-05
A33U C34U G60U | < 1e-05 | – | – | – | –
A33G A52C U55G | < 1e-05 | – | – | – | –
A33C G40A C67G | < 1e-05 | – | – | – | –
C34G G63C | < 1e-05 | < 1e-05 | < 1e-05 | < 1e-05 | –
C34A G41A U65G | < 1e-05 | – | – | – | –
C34A U45G | < 1e-05 | < 1e-05 | < 1e-05 | < 1e-05 | < 1e-05
A33G U47A | < 1e-05 | – | – | < 1e-05 | –
C34A G44A | < 1e-05 | < 1e-05 | < 1e-05 | < 1e-05 | < 1e-05
A33G G40C U56G | < 1e-05 | – | – | – | –

Variant | self-cleavage kobs at 40 uM GlcN6P [1] [s⁻¹] | self-cleavage kobs at 160 uM GlcN6P [2] [s⁻¹] | self-cleavage kobs at 640 uM GlcN6P [3] [s⁻¹] | self-cleavage kobs at 10000 uM GlcN6P [4] [s⁻¹] | self-cleavage kobs at 2500 uM GlcN6P [5] [s⁻¹]
A33C G40C G44U C50U | < 1e-05 | – | – | – | < 1e-05
C34G U65C | < 1e-05 | – | < 1e-05 | < 1e-05 | –
C34G C50G G59A C67G | 3.78e-05 ± 1.8e-05 | 0.000158 ± 3.7e-05 | – | – | 0.000115 ± 2.3e-05
C34G G35C | < 1e-05 | – | – | – | –
A33U G37C U45C A64C | < 1e-05 | – | – | < 1e-05 | –
A33C G35C | < 1e-05 | < 1e-05 | < 1e-05 | < 1e-05 | –
C34G A64G | < 1e-05 | < 1e-05 | < 1e-05 | < 1e-05 | < 1e-05
C34A U47G U54G G59U C68G | 0.000664 ± 0.0002 | – | – | 0.000474 ± 0.00012 | –
A33C G43A U47G | < 1e-05 | < 1e-05 | < 1e-05 | – | < 1e-05
A33C G41C U47C A53G U54C U65G C70U | < 1e-05 | – | – | < 1e-05 | –
A33G G51A | < 1e-05 | < 1e-05 | – | < 1e-05 | < 1e-05
A33G G66A | < 1e-05 | < 1e-05 | – | < 1e-05 | –
C34A G38A | < 1e-05 | < 1e-05 | – | < 1e-05 | < 1e-05
A33G C71U | < 1e-05 | – | – | < 1e-05 | –
A33C G41A A42C G63C C67U | < 1e-05 | – | – | < 1e-05 | < 1e-05
C34G G41C G66U | < 1e-05 | – | – | < 1e-05 | –
A33U A48U | < 1e-05 | < 1e-05 | < 1e-05 | < 1e-05 | –
A33C G44C U57A A64U | < 1e-05 | < 1e-05 | < 1e-05 | < 1e-05 | < 1e-05
C34G C58U | < 1e-05 | – | < 1e-05 | < 1e-05 | < 1e-05
C34G C58G | < 1e-05 | < 1e-05 | < 1e-05 | < 1e-05 | –
